As a reminder, the Kd is the equilibrium constant for the complex coming apart. Read a low Kd as a tighter complex.

We go through two molecules from paper PMC10120378.

Assay in all cases: fluorescence polarization
In series [1] the target is T1, HUα2 P63A (Escherichia coli (MG1655-derived …, UniProt P0ACF0 1-90, P63A)).
Series [2] has as its target T2, HUα2 wild-type (Escherichia coli (MG1655-derived …, UniProt P0ACF0 1-90)).
The target in series [3] is T1, HUα2 P63A. The source holds these as a separate data set.
Series [4] deals with T2, HUα2 wild-type. The source holds these as a separate data set.

Read-outs that look alike come from different tables or passages of the source.

B1: cruciform DNA (structured_DNA)
DNA 1: CCTAGCAAGGGGCTGCTACCTTTGGTAGCAGCCTGAGCGGTGG
DNA 2: CCACCGCTCAACTCAACTGCTTTGCAGTTGAGTCCTTGCTAGG
In the case of B1, the dissociation constant Kd worked out at 352 nM in series [1] and 178 ± 22 nM in series [2].

B2: linear DNA of random sequence (40 bp) (dsDNA)
DNA 1: CCGACTAAGTACATGTGAGAATTTTGCTGCCTTCGAACCT
DNA 2: AGGTTCGAAGGCAGCAAAATTCTCACATGTACTTAGTCGG
With B2, in series [3], the binding result is listed as “binds”. Further, the Kd in series [4] came to 51 ± 4 nM.
